Laboratory results reported in patent US20260242478A1 (published 2026).
Where no end group is shown, it is not given here.

Key:
[1] = biological target: T1, PSMA Fab; assay: clonal phage ELISA; biotinylated PSMA Fab on neutravidin plate, blocking buffer alone; anti-M13 HRP detection;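 note: crude clonal phage supernatants added without washing to wells pretreated with blocking buffer with or without PSMA antigen, short incubation, then washed before detecting bound phage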
T1 construct: also called Anti-PSMA Fab; 006 PSMA Fab
Procedure: (§1) Clonal phage were harvested as crude supernatants and screened via standard ELISAs. […] Prior to the addition of clonal phage. wells were incubated with blocking buffer and PSMA antigen or blocking buffer alone. Without washing or aspirating, clonal phage supernatants were then added to the wells and incubated for a short time. Wells were then washed followed by detection of bound phage using a horse radish conjugated anti-M13 antibody.

[2] = biological target: T1, PSMA Fab; assay: clonal phage ELISA; biotinylated PSMA Fab on neutravidin plate, wells pre-incubated with PSMA antigen as competitor; anti-M13 HRP detection;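 note: crude clonal phage supernatants added to antigen-treated wells without a wash, incubated briefly, then bound phage read out via horse radish–conjugated anti-M13 antibody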
Procedure: as §1

[3] = biological target: T2, PSMA Fab (006 PSMA Fab) (biotinylated (site not stated)); assay: clonal phage ELISA on biotinylated PSMA Fab captured on neutravidin plate, blocking buffer alone; anti-M13 HRP detection
T2 construct: also called Anti-PSMA Fab; anti-PSMA Fab

[4] = biological target: T3, PSMA Fab (006 PSMA Fab); assay: phage ELISA; biotinylated PSMA Fab on neutravidin plate, clonal phage supernatant, anti-M13 HRP detection;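 note: wells preincubated with PSMA antigen in blocking buffer or with blocking buffer only before clonal phage were added for a short incubation, then bound phage detected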
T3 construct: also called Anti-PSMA Fab; anti-PSMA Fab
Procedure: as §1

[5] = biological target: T3, PSMA Fab (006 PSMA Fab); assay: phage ELISA; biotinylated PSMA Fab on neutravidin plate pre-incubated with PSMA antigen as competitor, anti-M13 HRP detection;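 note: crude clonal phage supernatants tested, compared against control wells pre-incubated with blocking buffer only, without PSMA antigen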
Procedure: as §1

[6] = biological target: T4, PSMA Fab (006 PSMA Fab) (biotinylated (site not stated)); assay: phage ELISA: clonal phage on biotinylated PSMA Fab captured on neutravidin plate, wells pre-incubated with PSMA antigen as competitor, anti-M13 HRP detection
T4 construct: Captured as biotinylated PSMA Fab on neutravidin coated plates in the phage ELISA; also called Anti-PSMA Fab; anti-PSMA Fab

[7] = biological target: T4, PSMA Fab (006 PSMA Fab); assay: phage ELISA: clonal phage on biotinylated PSMA Fab captured on neutravidin plate, anti-M13 HRP detection
Procedure: as §1

Row | Binder | Phage binding ELISA signal, Anti-PSMA Fab [1] | Phage binding ELISA signal, Anti-PSMA Fab with PSMA antigen [2] | Phage binding ELISA signal, Anti-PSMA Fab [3] | other results
1 | VPALCVPNWMCSGL [Phage-3749] | 1.38 | 0.0565 |  | 
2 | YETVCKPLWMCTGF (peptide, not shown: large carriers, cysteine pairing not given here; also: displayed on phage as pIII fusion, Clonal phage of the peptide-180 library, tested as crude phage supernatant) [Phage-3758] |  |  | 1.36 | 
3 | PGKVCEPIWMCLGF (cysteine pairing not given here; also: displayed on phage as pIII fusion) [Phage-3744] | 1.38 | 0.124 |  | 
4 | WIKECVPDWMCSGF [Phage-3745] | 1.38 | 0.0803 |  | 
5 | EYQRCIPEWMCSGF [Phage-3779] |  |  |  | Phage binding ELISA signal, Anti-PSMA Fab [4]: 1.33; Phage binding ELISA signal, Anti-PSMA Fab in presence of PSMA [5]: 0.0735
6 | VHRMCEPKWMCEGF [Phage-3773] |  |  |  | Phage binding ELISA signal, Anti-PSMA Fab [4]: 1.33; Phage binding ELISA signal, Anti-PSMA Fab in presence of PSMA [5]: 0.0695
7 | MVIECRPEWMCVGF (peptide, not shown: large carriers, Clonal phage of the peptide-180 library, tested as crude phage supernatant) [Phage-3765] |  |  | 1.35 | 
8 | EVVACVPEWMCVGF (peptide, not shown: large carriers, Clonal phage of the peptide-180 library, tested as crude phage supernatant) [Phage-3761] |  |  | 1.36 | 
9 | LVHLCKPPWMCHGF (peptide, not shown: large carriers, Clonal phage of the peptide-180 library, tested as crude phage supernatant) [Phage-3762] |  |  | 1.36 | 
10 | GLRMCEPMWMCQGF (cysteine pairing not given here; also: displayed on phage as pIII fusion) [Phage-3772] |  |  |  | Phage binding ELISA signal, Anti-PSMA Fab [4]: 1.34; Phage binding ELISA signal, Anti-PSMA Fab in presence of PSMA [5]: 0.0749
11 | ESRLCVPTWMCTWL [Phage-3728] |  |  |  | Phage binding ELISA signal, Anti-PSMA Fab in presence of PSMA [6]: 0.0946; Phage binding ELISA signal, Anti-PSMA Fab [7]: 1.41
12 | VTTLCRPAWMCHGF [Phage-3778] |  |  |  | Phage binding ELISA signal, Anti-PSMA Fab [4]: 1.33; Phage binding ELISA signal, Anti-PSMA Fab in presence of PSMA [5]: 0.0881
13 | GNIWCEPAWMCVGF (peptide, not shown: large carriers, Clonal phage of the peptide-180 library, tested as crude phage supernatant) [Phage-3771] |  |  | 1.34 | 
14 | EQPACVPKWMCIGF [Phage-3750] | 1.38 | 0.0893 |  | 
15 | ENRMCIPEWMCQAS (peptide, not shown: large carriers, Clonal phage of the peptide-180 library, tested as crude phage supernatant) [Phage-3764] |  |  | 1.36 | 
16 | GSPFCVPLWMCEGF (peptide, not shown: large carriers, Clonal phage of the peptide-180 library, tested as crude phage supernatant) [Phage-3769] |  |  | 1.35 | 
17 | EAKVCKPAWMCDGL [Phage-3754] | 1.37 | 0.077 |  | 
18 | EEMMCKPDWMCYGF [Phage-3755] | 1.37 | 0.109 |  | 
19 | YHKECIPPWMCMGF [Phage-3756] | 1.37 | 0.0922 |  | 
20 | IDRHCVPRWMCDGL [Phage-3727] |  |  |  | Phage binding ELISA signal, Anti-PSMA Fab in presence of PSMA [6]: 0.0751; Phage binding ELISA signal, Anti-PSMA Fab [7]: 1.41

Row | Binder | Phage binding ELISA signal, Anti-PSMA Fab [1] | Phage binding ELISA signal, Anti-PSMA Fab with PSMA antigen [2] | Phage binding ELISA signal, Anti-PSMA Fab [3] | other results
21 | DVGMCRPKWMCDGF (peptide, not shown: large carriers, Clonal phage of the peptide-180 library, tested as crude phage supernatant) [Phage-3759] |  |  | 1.36 | 
22 | ETPRCVPWWMCIDI [Phage-3751] | 1.37 | 0.0731 |  | 
23 | PVQLCIPSWMCDGF [Phage-3776] |  |  |  | Phage binding ELISA signal, Anti-PSMA Fab [4]: 1.33; Phage binding ELISA signal, Anti-PSMA Fab in presence of PSMA [5]: 0.0876
24 | TLFACVPAWMCDGF [Phage-3726] |  |  |  | Phage binding ELISA signal, Anti-PSMA Fab in presence of PSMA [6]: 0.0757; Phage binding ELISA signal, Anti-PSMA Fab [7]: 1.41
25 | QSVMCRPAWMCEGF [Phage-3748] | 1.38 | 0.0813 |  | 
26 | MEPVCLPEWMCWGF [Phage-3747] | 1.38 | 0.0902 |  | 
27 | VQLMCMPEWMCSGL [Phage-3775] |  |  |  | Phage binding ELISA signal, Anti-PSMA Fab [4]: 1.33; Phage binding ELISA signal, Anti-PSMA Fab in presence of PSMA [5]: 0.0599
28 | ISPICRPAWMCHGF [Phage-3777] |  |  |  | Phage binding ELISA signal, Anti-PSMA Fab [4]: 1.33; Phage binding ELISA signal, Anti-PSMA Fab in presence of PSMA [5]: 0.0873
29 | VLPSCIPSWMCNGF (peptide, not shown: large carriers, Clonal phage of the peptide-180 library, tested as crude phage supernatant) [Phage-3760] |  |  | 1.36 | 
30 | LYGVCVPEWMCHGF (peptide, not shown: large carriers, Clonal phage of the peptide-180 library, tested as crude phage supernatant) [Phage-3766] |  |  | 1.35 | 
31 | SEPVCTPMWMCTGI (peptide, not shown: large carriers, Clonal phage of the peptide-180 library, tested as crude phage supernatant) [Phage-3768] |  |  | 1.35 | 
32 | VVRVCEPSWMCAGF (peptide, not shown: large carriers, cysteine pairing not given here; also: displayed on phage as pIII fusion, Clonal phage of the peptide-180 library, tested as crude phage supernatant) [Phage-3767] |  |  | 1.35 | 
33 | NSSLCIPSWMCSGF [Phage-3752] | 1.37 | 0.0738 |  | 
34 | TTPMCVPAWMCSGM (peptide, not shown: large carriers, Clonal phage of the peptide-180 library, tested as crude phage supernatant) [Phage-3770] |  |  | 1.34 | 
35 | VMPRCEPIWMCRGF [Phage-3746] | 1.38 | 0.0701 |  | 
36 | FELYCVPAWMCSGF [Phage-3753] | 1.37 | 0.16 |  | 
37 | WEGFCVPTWMCDGF [Phage-3774] |  |  |  | Phage binding ELISA signal, Anti-PSMA Fab [4]: 1.33; Phage binding ELISA signal, Anti-PSMA Fab in presence of PSMA [5]: 0.0864
38 | HMPLCIPVWMCAGF (not fully specified (residue 3); cysteine pairing not given here; also: displayed on phage as fusion to pIII, junction not given here) [Phage-3780] |  |  |  | Phage binding ELISA signal, Anti-PSMA Fab [4]: 1.33; Phage binding ELISA signal, Anti-PSMA Fab in presence of PSMA [5]: 0.113
39 | DQRECIPHWMCAGF (peptide, not shown: large carriers, cysteine pairing not given here; also: displayed on phage as pIII fusion, Clonal phage of the peptide-180 library, tested as crude phage supernatant) [Phage-3763] |  |  | 1.36 | 
40 | TIMYCKPTWMCTGF [Phage-3757] | 1.37 | 0.0727 |  | 
